# Results published in article PMC10397247.
# T1: 4H796-bH
# T1 chain: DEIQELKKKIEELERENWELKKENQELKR
# T2: 4H56-bH
# T2 chain: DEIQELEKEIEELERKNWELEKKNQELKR
# T3: 4H2444-bH
# T3 chain: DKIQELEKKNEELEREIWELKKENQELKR
# T4: 4H492-bH
# T4 chain: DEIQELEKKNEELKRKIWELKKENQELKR
# T5: 4H2438-bH
# T5 chain: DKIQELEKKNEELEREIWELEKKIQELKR
# T6: 4H319-bH
# T6 chain: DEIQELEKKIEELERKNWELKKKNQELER
# T7: 4H40-bH
# T7 chain: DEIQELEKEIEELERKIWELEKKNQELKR
# T8: 4H3057-bH
# T8 chain: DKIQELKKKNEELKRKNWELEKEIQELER
# T9: 4H741-bH
# T9 chain: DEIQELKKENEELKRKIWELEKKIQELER
# T10: 4H949-bH
# T10 chain: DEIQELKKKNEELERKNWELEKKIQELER
# T11: 4H2915-bH
# T11 chain: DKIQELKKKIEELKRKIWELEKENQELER
# T12: 4H754-bA
# T12 chain: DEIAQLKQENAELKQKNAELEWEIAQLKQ
# T13: 4H3381-bH
# T13 chain: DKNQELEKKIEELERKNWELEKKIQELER
# T14: 4H2760-bH
# T14 chain: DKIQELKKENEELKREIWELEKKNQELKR
# T15: 4H2223-bH
# T15 chain: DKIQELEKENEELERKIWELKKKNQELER
# T16: 4H2692-bH
# T16 chain: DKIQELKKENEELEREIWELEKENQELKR
# T17: 4H4001-bN
# T17 chain: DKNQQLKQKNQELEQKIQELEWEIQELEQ
# T18: 4H2518-bH
# T18 chain: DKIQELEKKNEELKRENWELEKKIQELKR
# T19: 4H2162-bH
# T19 chain: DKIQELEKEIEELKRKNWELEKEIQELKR
# T20: 4H2503-bH
# T20 chain: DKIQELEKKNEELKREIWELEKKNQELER
# T21: 4H348-bH
# T21 chain: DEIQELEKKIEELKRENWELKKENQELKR
# T22: 4H477-bH
# T22 chain: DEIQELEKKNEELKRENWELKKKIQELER
# T23: 4H3041-bH
# T23 chain: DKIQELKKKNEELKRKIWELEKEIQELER
# T24: 4H730-bH
# T24 chain: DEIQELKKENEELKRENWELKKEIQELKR
# T25: 4H2717-bH
# T25 chain: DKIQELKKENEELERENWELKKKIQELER
# T26: 4H2588-bH
# T26 chain: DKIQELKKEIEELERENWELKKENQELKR
# T27: 4H2253-bH
# T27 chain: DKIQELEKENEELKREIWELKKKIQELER
# T28: 4H2233-bH
# T28 chain: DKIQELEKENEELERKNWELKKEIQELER
# T29: 4H3297-bH
# T29 chain: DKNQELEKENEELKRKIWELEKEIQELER
# T30: 4H2931-bH
# T30 chain: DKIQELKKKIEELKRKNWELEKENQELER
# T31: 4H235-bH
# T31 chain: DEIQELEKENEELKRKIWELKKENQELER
# T32: 4H2473-bH
# T32 chain: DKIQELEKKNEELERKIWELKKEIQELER
# T33: 4H349-bH
# T33 chain: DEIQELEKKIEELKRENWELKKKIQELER
# T34: 4H932-bH
# T34 chain: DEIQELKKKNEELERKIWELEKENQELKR
# T35: 4H3277-bH
# T35 chain: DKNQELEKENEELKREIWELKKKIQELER
# T36: 4H2839-bH
# T36 chain: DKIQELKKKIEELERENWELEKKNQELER
# T37: 4H264-bH
# T37 chain: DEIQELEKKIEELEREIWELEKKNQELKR
# T38: 4H3364-bH
# T38 chain: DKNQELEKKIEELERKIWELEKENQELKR
# T39: 4H2585-bH
# T39 chain: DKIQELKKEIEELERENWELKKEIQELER
# T40: 4H2143-bH
# T40 chain: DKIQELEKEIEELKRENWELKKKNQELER
# T41: 4H2859-bH
# T41 chain: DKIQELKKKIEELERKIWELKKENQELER
# T42: 4H3638-bA
# T42 chain: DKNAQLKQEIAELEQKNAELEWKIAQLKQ
# T43: 4H3414-bA
# T43 chain: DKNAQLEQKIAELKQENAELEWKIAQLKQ
# T44: 4H1710-bA
# T44 chain: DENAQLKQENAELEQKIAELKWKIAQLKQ
# T45: 4H1449-bA
# T45 chain: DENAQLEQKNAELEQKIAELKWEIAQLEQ
# T46: 4H584-bA
# T46 chain: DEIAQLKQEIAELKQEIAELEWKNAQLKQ
# T47: 4H570-bA
# T47 chain: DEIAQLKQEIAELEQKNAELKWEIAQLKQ
# T48: 4H1629-bA
# T48 chain: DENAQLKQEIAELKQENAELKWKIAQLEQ
# T49: 4H850-bA
# T49 chain: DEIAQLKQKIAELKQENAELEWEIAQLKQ
# T50: 4H3129-bA
# T50 chain: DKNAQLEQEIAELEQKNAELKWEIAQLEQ
# T51: 4H3172-bA
# T51 chain: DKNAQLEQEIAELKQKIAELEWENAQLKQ
# T52: 4H906-bA
# T52 chain: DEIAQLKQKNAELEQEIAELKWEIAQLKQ
# T53: 4H1804-bA
# T53 chain: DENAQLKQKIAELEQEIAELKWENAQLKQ
# T54: 4H1985-bA
# T54 chain: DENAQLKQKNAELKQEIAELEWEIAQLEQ
# T55: 4H3817-bA
# T55 chain: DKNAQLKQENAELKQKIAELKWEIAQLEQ
# T56: 4H1393-bA
# T56 chain: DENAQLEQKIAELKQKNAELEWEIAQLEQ
# T57: 4H619-bA
# T57 chain: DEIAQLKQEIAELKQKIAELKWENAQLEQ
# T58: 4H3974-bA
# T58 chain: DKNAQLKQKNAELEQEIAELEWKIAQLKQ
# T59: 4H3631-bA
# T59 chain: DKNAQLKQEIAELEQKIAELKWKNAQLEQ
# How the values were obtained:
# Test in all cases: two-hybrid library CCNG1;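 note: natural log of median RNA to DNA barcode read ratio; higher means stronger binding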
# [1] = molecular target: T1, 4H796-bH
# [2] = molecular target: T2, 4H56-bH
# [3] = molecular target: T3, 4H2444-bH
# [4] = molecular target: T4, 4H492-bH
# [5] = molecular target: T5, 4H2438-bH
# [6] = molecular target: T6, 4H319-bH
# [7] = molecular target: T7, 4H40-bH
# [8] = molecular target: T8, 4H3057-bH
# [9] = molecular target: T9, 4H741-bH
# [10] = molecular target: T10, 4H949-bH
# [11] = molecular target: T11, 4H2915-bH
# [12] = molecular target: T12, 4H754-bA
# [13] = molecular target: T13, 4H3381-bH
# [14] = molecular target: T14, 4H2760-bH
# [15] = molecular target: T15, 4H2223-bH
# [16] = molecular target: T16, 4H2692-bH
# [17] = molecular target: T17, 4H4001-bN
# [18] = molecular target: T18, 4H2518-bH
# [19] = molecular target: T19, 4H2162-bH
# [20] = molecular target: T20, 4H2503-bH
# [21] = molecular target: T21, 4H348-bH
# [22] = molecular target: T22, 4H477-bH
# [23] = molecular target: T23, 4H3041-bH
# [24] = molecular target: T24, 4H730-bH
# [25] = molecular target: T25, 4H2717-bH
# [26] = molecular target: T26, 4H2588-bH
# [27] = molecular target: T27, 4H2253-bH
# [28] = molecular target: T28, 4H2233-bH
# [29] = molecular target: T29, 4H3297-bH
# [30] = molecular target: T30, 4H2931-bH
# [31] = molecular target: T31, 4H235-bH
# [32] = molecular target: T32, 4H2473-bH
# [33] = molecular target: T33, 4H349-bH
# [34] = molecular target: T34, 4H932-bH
# [35] = molecular target: T35, 4H3277-bH
# [36] = molecular target: T36, 4H2839-bH
# [37] = molecular target: T37, 4H264-bH
# [38] = molecular target: T38, 4H3364-bH
# [39] = molecular target: T39, 4H2585-bH
# [40] = molecular target: T40, 4H2143-bH
# [41] = molecular target: T41, 4H2859-bH
# [42] = molecular target: T42, 4H3638-bA
# [43] = molecular target: T43, 4H3414-bA
# [44] = molecular target: T44, 4H1710-bA
# [45] = molecular target: T45, 4H1449-bA
# [46] = molecular target: T46, 4H584-bA
# [47] = molecular target: T47, 4H570-bA
# [48] = molecular target: T48, 4H1629-bA
# [49] = molecular target: T49, 4H850-bA
# [50] = molecular target: T50, 4H3129-bA
# [51] = molecular target: T51, 4H3172-bA
# [52] = molecular target: T52, 4H906-bA
# [53] = molecular target: T53, 4H1804-bA
# [54] = molecular target: T54, 4H1985-bA
# [55] = molecular target: T55, 4H3817-bA
# [56] = molecular target: T56, 4H1393-bA
# [57] = molecular target: T57, 4H619-bA
# [58] = molecular target: T58, 4H3974-bA
# [59] = molecular target: T59, 4H3631-bA
binder,measurement,setting,value
DKIQELEKEIEELKRENWELKKKNQELER [4H2143-bH],interaction score,[1],-1.45
same,interaction score,[2],0.127
same,interaction score,[3],-0.824
same,interaction score,[4],-0.638
same,interaction score,[5],-0.916
same,interaction score,[6],-1.46
same,interaction score,[7],1
same,interaction score,[8],0.0434
same,interaction score,[9],0.515
same,interaction score,[10],-0.954
same,interaction score,[11],-0.577
same,interaction score,[12],-0.871
same,interaction score,[13],0.106
same,interaction score,[14],-0.0706
same,interaction score,[15],-0.434
same,interaction score,[16],-0.348
same,interaction score,[17],-1.45
same,interaction score,[18],0.15
same,interaction score,[19],0.12
same,interaction score,[20],-1.13
same,interaction score,[21],0.059
same,interaction score,[22],-0.0383
same,interaction score,[23],-0.203
same,interaction score,[24],-0.835
same,interaction score,[25],-0.549
same,interaction score,[26],-0.874
same,interaction score,[27],-1.13
same,interaction score,[28],0.334
same,interaction score,[29],-0.15
same,interaction score,[30],0.0986
same,interaction score,[31],-0.618
same,interaction score,[32],-0.279
same,interaction score,[33],-0.148
same,interaction score,[34],-0.164
same,interaction score,[35],-0.719
same,interaction score,[36],1.24
same,interaction score,[37],0.605
same,interaction score,[38],0.347
same,interaction score,[39],-1.12
same,interaction score,[40],0.693
same,interaction score,[41],-0.954
DENAQLEQKIAELKQKNAELEWEIAQLEQ [4H1393-bA],interaction score,[42],1.8
same,interaction score,[43],0.166
same,interaction score,[44],-1.72
same,interaction score,[45],-1.31
same,interaction score,[12],-1.58
same,interaction score,[46],-1.22
same,interaction score,[47],-0.941
same,interaction score,[48],-1.57
same,interaction score,[49],-0.951
same,interaction score,[50],-0.0989
same,interaction score,[51],-1.3
same,interaction score,[52],-1.12
same,interaction score,[53],-1.14
same,interaction score,[29],-0.857
same,interaction score,[54],-1.7
same,interaction score,[55],-1.23
same,interaction score,[56],-1.08
same,interaction score,[57],-1.63
same,interaction score,[58],-0.626
same,interaction score,[59],-0.847
